According to US8268779B2, “Pharmaceutical composition comprising oxyntomodulin derivatives and a method for reducing body weight using the composition” (Merck Sharp & Dohme Corp., priority 2006, dated 2012):
Non-standard residues stand in square brackets, D forms with d. Residues, ends and D or L forms follow the SMILES beside them. No end group written: not given here. *: point of attachment. C3 = cysteine residue PEGylated via the side-chain thiol with branched methoxyPEG [(mPEG)2] of 40 kDa (Cys(mPEG)2 40 kDa); (mPEG)2 40 kDa = C3 = Cys(mPEG)2 40 kDa, cysteine PEGylated via side-chain thiol with branched mPEG of 40 kDa; Desaminohistidyl = O=C(CCc1c[nH]cn1)*; Met(O) = CS(=O)CC[C@H](N)C(=O)O; Aib = CC(C)(N)C(=O)O

Key:
hGLP-1R [1] = target: T1, hGLP-1R (Homo sapiens, UniProt P43220); assay: EC50 (hGLP-1R), nM | "+DPP-IV"
Method: (§1) Table printed on a drawing sheet, FIG.17
(§2) First copying reader's note: The "+DPP-IV" column is the hGLP-1R EC50 measured after incubation with DPP-IV, so stability is shown as a potency shift against the "-DPP-IV" column.
(§3) Where the first naming reader finds the target: head: EC50 (hGLP-1R), nM

hGLP-1R [2] = target: T1, hGLP-1R; assay: EC50 (hGLP-1R), nM | "-DPP-IV"
Method: as §1
Head of the field: EC50 (hGLP-1R), nM | "-DPP-IV"
as §2, §3

GLP-1R−/− mice = assay: IPGTT with plasma glucose and insulin in GLP-1R-/- mice; assay type: in vivo, mouse
WT mice = assay: IPGTT with plasma glucose and insulin in WT mice; assay type: in vivo, mouse; settings: OXM 0.3 mpk i.p., exendin-4 0.02 mpk i.p.
mice = assay: Gastric emptying in mice; assay type: in vivo, mouse; settings: maximally efficacious dose for glucose lowering
[3] = Hydrolysis sites on incubation in PBS containing 10% mouse or human plasma; assay type: in vitro ADME; settings: 37° C.
Method: A detailed study was undertaken in which OXM139 was incubated in PBS containing 10% of mouse or human plasma at 37° C. Sample preparation was accomplished by mixing 1 μL of test solution and 1 μL of matrix (α-cyano) directly on the sample plate. After crystallization Tof spectrum was collected: Time points at 30, 60, 120 and 720 minutes were analyzed and compared with the same time points of the control test solutions. […] Specifically, Arg 17 was mutated to Glu and Arg 18 was mutated to Ala. The peptide OXM153 is the N-ethyl maleimide analog of OXM151. The peptide OXM154 is the conjugate obtained using a (mPEG)240 kDa from NOF Corporation (SUNBRIGHT GL2-400MA Maleimide).
A similar study of stability was performed on a GcgK series analog OXM144 to determine the primary sites of hydrolysis by incubation with PBS, containing 10% of either mouse or human plasma. […] For this reason, it was decided to introduce mutations at the sites 17 and 18 also in the GcgK analog series.

glucagon-like activity = assay: Glucagon-like activity in vitro (FIG. 13)
Male C57BL/6N mice = assay: Acute effects on food intake and body weight in lean mice; assay type: in vivo, mouse; settings: for overnight body weight gain in mice fed ad libitum: equimolar/similar doses; for overnight food intake and body weight gain in lean mice: FIG. 3
Method: Absolute changes in food intake were calculated for each animal by subtracting the amount of food remaining in the food hopper at the specified time points from that of the corresponding original pre-weighed aliquot. Absolute changes in body weight were calculated for each animal by subtracting the body weight of the animal prior to dosing from that of the corresponding animal at the specified time points. All values were reported as mean±SEM and peptide treatment groups were analyzed by the two-tailed unpaired Student's t test with reference to vehicle-treated animals. […] (FIG. 3)

[4] = target: T2, recombinant soluble human DP-IV (Homo sapiens, UniProt P27487); assay: Resistance to DP-IV cleavage (preincubation with DP-IV, then hGLP-1R cAMP HTRF assay); assay type: in vitro ADME; settings: FIG. 1
T2 construct: recombinant soluble human DP-IV
T2 sequence (P27487 39-766 limits assumed): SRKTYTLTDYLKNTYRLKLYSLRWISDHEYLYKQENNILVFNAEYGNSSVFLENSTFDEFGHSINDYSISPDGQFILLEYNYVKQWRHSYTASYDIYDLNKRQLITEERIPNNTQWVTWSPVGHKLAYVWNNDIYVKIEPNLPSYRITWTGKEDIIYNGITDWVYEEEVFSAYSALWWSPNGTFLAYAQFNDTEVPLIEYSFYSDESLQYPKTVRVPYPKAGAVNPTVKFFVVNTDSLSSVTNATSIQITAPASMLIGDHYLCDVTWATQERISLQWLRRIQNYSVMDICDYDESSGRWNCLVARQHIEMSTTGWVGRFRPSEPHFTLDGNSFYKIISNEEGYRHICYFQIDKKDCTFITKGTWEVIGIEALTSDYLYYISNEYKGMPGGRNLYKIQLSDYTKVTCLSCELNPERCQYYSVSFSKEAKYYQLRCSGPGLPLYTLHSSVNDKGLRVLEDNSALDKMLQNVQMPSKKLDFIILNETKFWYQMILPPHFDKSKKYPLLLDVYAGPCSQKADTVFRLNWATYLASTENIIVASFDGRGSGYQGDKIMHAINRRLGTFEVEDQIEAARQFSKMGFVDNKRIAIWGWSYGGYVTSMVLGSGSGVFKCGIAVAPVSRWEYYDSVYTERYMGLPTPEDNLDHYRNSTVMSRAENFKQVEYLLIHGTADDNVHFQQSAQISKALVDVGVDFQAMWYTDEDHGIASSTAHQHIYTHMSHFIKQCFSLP
Method: Activation of hGLP-1R was subsequently measured using the Cis Bio HTRF cAMP assay and compared to control peptides pre-incubated at 37° C. for 2 hours in the absence of DP-IV.

[5] = system: mutant form of the human GLP-1R; assay: GLP-1R cAMP HTRF assay in transfected CHO cells; assay type: cell-based
[6] = system: islets from GCG-R−/− mice; assay: GSIS in GCG-R-/- islets; settings: 10 nM peptide
Method: (§4) To measure GSIS, islets were first preincubated for 30 minutes in the Krebs-Ringer bicarbonate (KRB) buffer with 2 mM glucose (in Petri dishes). […] Insulin was measured in aliquots of the incubation buffer by ELISA with a commercial kit (ALPCO Diagnostics, Windham, N.H.).

[7] = system: islets from GLP-1R−/− mice; assay: GSIS in GLP-1R-/- islets; assay type: cell-based, mouse; settings: 10 nM peptide, 16 mmol/l glucose
Method: as §4

[8] = system: islets from wild type C57BL/6 mice; assay: Glucose-stimulated insulin secretion (GSIS) in wild type murine islets; assay type: cell-based, mouse
Method: as §4

EC50 (hGLP-1R [1]) [nM] | EC50 (hGLP-1R [2]) [nM] | Compound | also measured
92.3 | 93.3 | H2αQGTFTSDYSKYLDSRRAQDFVQWLmNTKRNRNNIAC3-CONH2 (XXQGTFTSDYSKYLDSRRAQDFVQWLXNTKRNRNNIAX; Aib2, D-Met, C-terminal amide, conjugated Cys; Synthetic peptide based on the human oxyntomodulin sequence) [OXM113] | 
10.9 | 6.9 | H2αQGTFTSDYSKYLDSRRAQDFVQWLmNTKRNRNNIAC5-CONH2 (XXQGTFTSDYSKYLDSRRAQDFVQWLXNTKRNRNNIAX; Aib2, D-Met, C-terminal amide, modified Cys; Synthetic peptide based on the human oxyntomodulin sequence) [OXM112] | 
27.5 | 7.5 | HαQGTFTSDYSKYLDSRRAQDFVQWLmNTKRNRNNIAC3-CONH2 [OXM99] | 
> 100 | > 100 | HαQGTFTSDYSC3YLDSRRAQDFVQWLmNTKRNRNNIA-CONH2 [OXM124] | 
 |  | exendin-4: GLP-1 mimetic, GLP-1 receptor agonist used as comparator | basal insulin levels (GLP-1R−/− mice): did not affect basal insulin levels; insulin response to i.p. glucose challenge (GLP-1R−/− mice): nor did it improve the insulin response; glucose excursion in IPGTT (GLP-1R−/− mice; same doses): did not affect glucose excursion; reduction of glucose AUC relative to the vehicle group (WT mice): > 60%; reduction of gastric emptying (mice): 47%
 |  | HαDGTFTSDYSKYLDSRRAQDFVQWLmNTKRNRNNIAC8-CONH2 [OXM139] | primary hydrolysis site [3]: bond between Arg17 and Arg18; secondary site of hydrolysis [3]: bond between Arg18 and Ala19
< 0.5 | 0.025 | HαDGTFTSDYSKYLDSRRAQDFVQWLmNTKRNRNNIAC4-CONH2 [OXM118] | 
12.7 | 6.2 | HαQGTFTSDYSKYLDSRRAC3DFVQWLMNTKRNRNNIA-CONH2 (H[Aib]QGTFTSDYSKYLDSRRA[C3]DFVQWLMNTKRNRNNIA-NH2) [OXM103] | 
41.3 |  | HαDGTFTSDYSKYLDSRRAQDFVQWLmNTKRNRNNIAC3-CONH2 (H[Aib]DGTFTSDYSKYLDSRRAQDFVQWL[Met(O)]NTKRNRNNIAC((mPEG)2 40 kDa)-NH2) [OXM117, (mPEG)240 kDa conjugate made with MPEG2-MAL-40K (NEKTAR)] | 
182 | 29.7 | HαQGTFTSDYSKYLDSRRAQDFVC3WLmNTKRNRNNIA-CONH2 [OXM107] | 
123 | 25 | H2αDGTFTSDYSKYLDSRRAC3DFVQWLmNTKRNRNNIA-CONH2 ([Desaminohistidyl][Aib]DGTFTSDYSKYLDSRRAC((mPEG)2 40 kDa)DFVQWL[Met(O)]NTKRNRNNIA-NH2) [OXM129] | 
0.05 | 0.06 | H2αQGTFTSDYSKYLDSRRAQDFVQWLmNTKRNRNNIAC4-CONH2 (XXQGTFTSDYSKYLDSRRAQDFVQWLXNTKRNRNNIAX; Aib2, D-Met, C-terminal amide, conjugated Cys; Synthetic peptide based on the human oxyntomodulin sequence) [OXM114] | 
2.2 | 0.9 | CSCC[C@H](NC(=O)[C@H](CC(C)C)NC(=O)[C@H](Cc1c[nH]c2ccccc12)NC(=O)[C@H](CCC(N)=O)NC(=O)[C@@H](NC(=O)[C@H](Cc1ccccc1)NC(=O)[C@H](CC(=O)O)NC(=O)[C@H](CCC(N)=O)NC(=O)[C@H](C)NC(=O)[C@H](CCCNC(=N)N)NC(=O)[C@H](CCCNC(=N)N)NC(=O)[C@H](CO)NC(=O)[C@H](CC(=O)O)NC(=O)[C@H](CC(C)C)NC(=O)[C@H](Cc1ccc(O)cc1)NC(=O)[C@H](CCCCN)NC(=O)[C@H](CO)NC(=O)[C@H](Cc1ccc(O)cc1)NC(=O)[C@H](CC(=O)O)NC(=O)[C@H](CO)NC(=O)[C@@H](NC(=O)[C@H](Cc1ccccc1)NC(=O)[C@@H](NC(=O)CNC(=O)[C@H](CC(=O)O)NC(=O)C(C)(C)NC(=O)[C@@H](N)Cc1c[nH]cn1)[C@@H](C)O)[C@@H](C)O)C(C)C)C(=O)N[C@@H](CC(N)=O)C(=O)N[C@H](C(=O)N[C@@H](CCCCN)C(N)=O)[C@@H](C)O [OXM131] (H-H[Aib]DGTFTSDYSKYLDSRRAQDFVQWLMNTK-NH2; N-terminus assumed) | 
36.7 | 28.5 | HαQGTFTSDYSKYLDSRRAQC3FVQWLMNTKRNRNNIA-CONH2 (HXQGTFTSDYSKYLDSRRAQXFVQWLMNTKRNRNNIA; Aib2, C-terminal amide, conjugated Cys; Synthetic peptide based on the human oxyntomodulin sequence) [OXM105] | 
8.7 | 5.8 | HαQGTFTSDYSKYLDSRRAQDFVQWLMNTK-CONH2 (HXQGTFTSDYSKYLDSRRAQDFVQWLMNTK; Aib2, C-terminal amide; Synthetic peptide based on the human oxyntomodulin sequence) [OXM130] | 
> 500 | > 500 | HαQGTFTSDYSKYLDSRRAQDC4VQWLmNTKRNRNNIA-CONH2 [OXM127] | 
14.5 | 7.6 | HαQGTFTSDYSKYLDSRRAQDFVQWLMC3TKRNRNNIA-CONH2 (HXQGTFTSDYSKYLDSRRAQDFVQWLMXTKRNRNNIA; Aib2, C-terminal amide, conjugated Cys; Synthetic peptide based on the human oxyntomodulin sequence) [OXM109] | 
 |  | HαDGTFTSDYSKYLDSRRAQDFVQWLmNTKRNRNNIAC3-CONH2 [OXM117, (mPEG)240 kDa conjugate made with MPEG2-MAL-40K (NEKTAR)] | glucagon-like activity in vitro (glucagon-like activity): no glucagon-like activity
 |  | HGQGTFTSDYSKYLDSRRAQDFVQWLMNTKRNRNNIAA-COOH (Synthetic peptide based on the human oxyntomodulin sequence) [OXM1] | overnight body weight gain in mice fed ad libitum (Male C57BL/6N mice): not efficacious
> 125 | > 125 | HαQGTFTSDYC3KYLDSRRAQDFVQWLmNTKRNRNNIA-CONH2 [OXM121] | 
 |  | HGQGTFTSDYSKYLDSRRAQDFVQWLMNTKRNRNNIAC2-COOH (HGQGTFTSDYSKYLDSRRAQDFVQWLMNTKRNRNNIAX; C2 conjugate at C-terminal cysteine; Synthetic peptide based on the human oxyntomodulin sequence) [OXM2] | hGLP-1R potency after preincubation of the peptide with DP-IV [4]: loss of potency; potency against GLP-1R in vitro relative to native OXM [5]: significantly less potent than native OXM; overnight food intake and body weight gain in lean mice (Male C57BL/6N mice): reducing overnight food intake and body weight gain; overnight body weight gain in mice fed ad libitum (Male C57BL/6N mice): effective in reducing overnight body weight gain
 |  | GLP-1: incretin hormone glucagon-like peptide 1, positive control | GSIS in GCG-R−/− islets ([6]; 16 mM glucose): significantly increased GSIS; fold-increase in fractional GSIS in GCG-R−/− islets ([6]; % insulin released relative to total islet insulin content): 2.5 fold; potentiation of GSIS in GLP-1R−/− islets [7]: completely unable to enhance GSIS; GSIS in WT islets ([8]; 10 nM peptide, 16 mmol/l glucose): enhanced GSIS in WT islets with equal efficacy; potentiation of GSIS in WT islets in the presence of exendin-9 ([8]; 0.5 μM exendin-9): completely blocked
184 | 22.5 | HαQGTFTSDYSKYLDSRRAQDFVQWLmNTKRNRNNIAC6-CONH2 [OXM100] | 
 |  | HαDGTFTSDYSKYLDSRRAC8DFVQWLmNTK-CONH2 [OXM144] | primary hydrolysis site [3]: bond between Arg17 and Arg18; secondary site of hydrolysis [3]: bond between Arg18 and Ala19
 |  | HGQGTFTSDYSKYLDSRRAQDFVQWLMNTKRNRNNIAC3-COOH (HGQGTFTSDYSKYLDSRRAQDFVQWLMNTKRNRNNIAX; C3 conjugate at C-terminal cysteine; Synthesized oxyntomodulin polypeptide) [OXM3] | potency against GLP-1R in vitro relative to native OXM [5]: significantly less potent than native OXM; overnight food intake and body weight gain in lean mice (Male C57BL/6N mice): reducing overnight food intake and body weight gain; overnight body weight gain in mice fed ad libitum (Male C57BL/6N mice): effective in reducing overnight body weight gain
42.5 | 3.9 | HαDGTFTSDYSKYLDSRRAC3DFVQWLmNTKRNRNNIA-CONH2 [OXM125] | 
